# Source: the RNAGym collection of RNA variant scans (doi:10.1073/pnas.2313332121)
# Fewer inactive variants are shown than the library holds.
# B1: TPR 5TU (parent)
# chain: GGAUCUUCUCGAUCUAACAAAAAAGACAAAUCUGCCACAAAGCUUGAGAGCAUCUUCGGAUGCAGAGGCGGCAGCCUUCGGUGGCGCGAUAGCGCCAACGUUCUCAACUAUGACACGCAAAACGCGUGCUCCGUUGAAUGGAGUUUAUCAUG
# Variants of: B1
# Assay: polymerase ribozyme fitness, log enrichment relative to wild type (log ratio); higher = more active; in vitro selection for triplet polymerase activity
# Method in brief: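 Streptavidin-bead capture of gel-excised extended constructs, followed by RT-PCR, closed a single triplicate in vitro selection round. That round began by annealing PCR-built, transcribed mutant libraries of each subunit of a heterodimeric triplet polymerase ribozyme with a biotinylated primer, the partner subunit and triplets, then incubating them frozen at −7 °C. After Illumina sequencing of inputs and outputs, genotypes needed ≥10 input reads and ≥1 read per output. Fitness is the base-2 logarithm of genotype enrichment over wild-type enrichment, using inverse-variance-weighted replicate averages.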
row,Variant,polymerase ribozyme fitness (log ratio)
1,GGAUCUUCUCGAUCUAACAAAAAAGACAAAUCUCCCACAAAGCUUGAGAGCAUCUUCAGAUGCAGAGGCGGCAGCCAUCGGGGGCACGAUAGCGCCAACGUUCUAAACUAUGACACGCAAAACGCGAGCUCCGUUGAAUGCAGUUUAUCAUG,≤ -4.2
2,GGAUCUUCUCGAUCUAACAAAAAAGACAAAUCUACCACAAAGCUUGAGAGCAUCUUAGGAUGCAGAGGCGGCAGCCUUCGGUGGCGUGUUAGCUCAAACGUUCAGAACUUUGACACGCAAAACGCUUGCUCCGUUGAAUGGAGUUUAUCAUG,≤ -4.2
3,GGAUCUUCUCGAUCUAACAAAAAAGACAAAUCUACCACAAAGCUUGAGAGCAUCUUCGGAUGCAGAGGCGGCAGCCUUCGGUGGCGCGAUAGCGCCAACGUUCUCAACUAUGACACUCAAAACGCGUGCUCCGUUGCAUGGUGUUUAUCAUG,≤ -4.2
4,GGAUCUUCUCGAUCUAACAAAAAAGACAAAUCUACCACAAAGCUUGACAGCAUCUUCGAAUGCAGAGGCGGCAGCCUUCGGUGGCGCGAUAGCGCCAACGUGCUCAACUAUGAAACGCAAAACGCGUGCUCCGUUGAAUGGAUUUUGUCAUG,≤ -4.2
5,GGAUCUUCUCGAUCUAACAAAAAAGACAAAUCUACCACAAAGCUUGAGAGCAUCUUCGGAUGCAGAGGCGGCAGCCUUCGGUGGCGCGAUAGCGCCAACGUUCUCAACUAUGACACGCAAAACGCGUGCUCCGUUGAAUGGAGUAUAUCAUG,-0.571
6,GGAUCUUCUCGAUCUAACAAAAAAGACAAAUCUCCCACCAAGCUUGAGAGCAUCAUCGGUUGCAGAGGCGGCUGCCUUCGGUGGCGCGAUAGCGCCAACGUUCUCAACUAUGACACGCAAAACGCGUGCUCCGUUGAAUGGAGUUGAUCAUG,≤ -4.2
7,GGAUCUUCUCGAUCUAACAAAAAAGACAAAUCUACCACAAAGCUUGAGAGCAUCUUCGGAUGCAGAGGCGGCAGCCUUCGGUGGCGCGAUAGCGUCAACGUUCUCAACUAUGACACGCAAAACGCGUGCUCCGUUAAAUGGAGUUUAUCAUG,-0.0966
8,GGAUCUUCUCGAUCUAACAAAAAAGACAAAUCUACCACAAAGCUUGAGAGCAUCUUCGGAUGCAGAGGCGGCAGCCUUCGGUGGCGCGAUAGCGCCAACGUGCUCAACUAUGACACGCAAAACGCGUGCUCCGUUGAAUGGAGUUUAUCAUG,≤ -4.2
9,GGAUCUUCUCGAUCUAACAAAAAAGACAAAUCUCCAACAAAGCUUGAGAGCAUCUUCGGAUGCAGAGGCGGCAGCCUUCGGUGGCGCGAUCGCGCUAACGUUCUCAACUAUGACACGCAAAAGGCGUGCUCCGUUGAAUAGAGUUUAUCAUG,-4.15
10,GGAUCUUCUCGAUCUAACAAAAAAGACAAAUCUCCCACAAAGCUUGAGAGCAUCUUCGGAUGCAGAGGCGGCAGCCUUCGGUGGCGGGAGAACGCCAACGUUCUCAACUAUGACACGCAAAACGCGUGCUCCGUUGAAUGGAGUUUAACAUG,≤ -4.2
11,GGAUCUUCUCGAUCUAACAAAAAAGACAAAUCUACCACAAAGCUUGAGAGCAUCUUCGGAUGCAGAGGCGGCAGCCUUCGGUGACGCGAUAGCGCCAACGUUCUCAACUAUGACACGCAAAACGCGUGCUCCGGUGAAUGGAGUUUAUCAUG,-2.82
12,GGAUCUUCUCGAUCUAACAAAAAAGACAAAUCUCCCACAAAGCUUGAGAGCAUCUUCGGAUGCAGAGGCGGCAGCAUUCGGUGGCGCGAUAGCGUCAACGUUCUCAACUAUGACACGCAAAACGCGUGCUCCGUUGAAUGGCGUUUAUCAUG,≤ -4.2
13,GGAUCUUCUCGAUCUAACAAAAAAGACAAAUCUACCACAAAGCUUGAGAGCAUCUUCGGAUGCAGAGGCGGCAGCCGUCGGUGGCGAGAUCGCGCCAACGUUCUCAAUUAUGACACGCAAAACGCGUGCUCCAUUGAAUGGAGUUUAUCAUG,≤ -4.2
14,GGAUCUUCUCGAUCUAACAAAAAAGACAAAUCUACCACAAAGAUUGAGAGCAUCUUCGGAUGCAGAGGCGGCAGCCUUCGGUGGCGCGAUAUCGCCAACGUUCUCAACUAUGACACGUAAAACGCGUGCUCCGUUGAAUGGAGUUUAUCAUG,≤ -4.2
15,GGAUCUUCUCGAUCUAACAAAAAAGACAAAUCUCCCACAAAGCUUGAGAGCAUCUUCGGAUGCAGGGGCGGCAGCCUUCGGUGGCUCGAUAGCGCCAACGUUCUCACCUAUGACACGCAAAACGCGUGCUCCGUUGAAUGUAGUUUAUCAUG,≤ -4.2
16,GGAUCUUCUCGAUCUAACAAAAAAGACAAAUCUACCACAAAGCUUGAGACCAUCUUCGGAUGCAGAGGCGGCAGCCUUCGGUGGCGCGAUAUCGCCAACGUUCUCAACUAUGACACGCAAAACGCGUGCUCCGUUGAAUGGAGUUUAUCAUG,≤ -4.2
17,GGAUCUUCUCGAUCUAACAAAAAAGACAAAUCUCCCACAAAGCUUGAGCGCGUCUUCGGAGGCAGAGGCGGCAGCCUUCGGUGGCGUGAUAGCGACAACGUUCUCAACUAUGACACGCAAAACGCGUGCUCCGUUGAAUGGAGUUUAUCAUG,-4.12
18,GGAUCUUCUCGAUCUAACAAAAAAGACAAAUCUACCACAAAGCUUGAGAGCAUCUUCAGAUGCAGAGGCGGCAGCCUUCGGUGGCGCGAAAGCACCAACGUUCUCAACGAUGACACGCAAAACGCGUGCUCCGUUGAAUGGAGUUUAUCAUG,≤ -4.2
19,GGAUCUUCUCGAUCUAACAAAAAAGACAAAUCUACCACAAAGCUUGAGAGCAUCUUGGGAUGCAGAGGCGGCAGCCUUCGGUGGCGCGAUAGCGCCAACGUUCUCAACUAUGACACACAAAACGCGUGCUCCGUUGAAUGGAGAUUAUCAUG,-3.39
